According to patent US20110293610A1 (published 2011):
Positions count from the first letter of the chain named.

T1: Fas ligand (human, UniProt P48023 134-281, limits assumed)
T1 sequence (looked up): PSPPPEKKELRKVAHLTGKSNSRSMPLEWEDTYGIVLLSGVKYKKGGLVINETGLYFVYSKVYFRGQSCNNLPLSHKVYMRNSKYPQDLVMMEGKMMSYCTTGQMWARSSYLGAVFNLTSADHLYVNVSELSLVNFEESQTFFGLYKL

T2: TNF-beta (human, UniProt P01374 35-205)
T2 construct: also called TNFβ; Tumour Necrosis Factor-beta
T2 sequence (looked up): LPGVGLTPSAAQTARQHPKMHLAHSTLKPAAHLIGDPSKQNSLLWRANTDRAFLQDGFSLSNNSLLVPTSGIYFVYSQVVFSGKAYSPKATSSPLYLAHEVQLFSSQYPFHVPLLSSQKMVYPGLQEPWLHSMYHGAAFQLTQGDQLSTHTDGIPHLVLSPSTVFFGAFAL

B1: I061H01 (scFv)
scFv: QVQLVQSGGGLVKPGGSLRLSCAASGFTFSNAWMSWVRQAPGKGLQWVGRIKSKTDGGTTDYAAPVKGRFTISRDDSKNTLYLQMNSLKTEDTAVYYCTTFNPTYDILTGYYIGGYFQHWGQGTMVTVSSGGGGSGGGGSGGGGSQSVLTQPASVSGSPGQSITISCTGTSSDVGGYNYVSWYQQHPGKAPKLMIYEGSKRPSGVSNRFSGSKSGNTASLTISGLQAEDEADYYCSSYTTRSTRVFGGGTQLTVLG
notes: also called 1061H01
B2: I017D10 (scFv)
scFv: RVQLVQSGAEVKKPGASVKVSCKASGYTFTSDHISWVRQAPGQGLEWMGWISPHHGKTNYAQKLQGRVTMTTDTSTSTAYMELRSLRSDDTAVYYCARVQMDSEYYDLLTGINVGPYYFDYWGKGTLVTVSSGGGGSGGGGSGGGGSSELTQDPAVSVALGQTVRITCQGDSLRSYYASWYQQKPGQAPVLVIYGKNNRPSGIPDRFSGSSSGNTASLTITGAQAEDEADYYCNSRDSSGNHVVFGGGTKLTVLG
B3: I008A09 (scFv)
scFv: GVQLVQSGGGVVQPGGSLRLSCAASGFTFSSYGMHWVRQAPGKGLEWVAVISYDGSNKYYADSVKGRFTISRDNSKNTLYLQMNSLRAEDTAVYYCARDREAYYDILTGYYLYYYYMDVWGRGTTVTVSSGGGGSGGGGSGGGGSQSVLTQPASVSGSPGQSITISCTGTSSDVGGYNYVSWYQQHPGKAPKLMIYEGSKRPSGVSNRFSGSKSGNTASLTISGLQAEDEADYYCSSYTTGSTRVFGGGTKLTVLG
B4: I007B03 (scFv)
scFv: GVQLQQSGAEVKKPGSSVKVSCKASGGTFNTSGITWVRQAPGQGLEWMGWMNPNTGDTAYAQEFQGRVIMTRDTSISTAYMELSSLRSEDTAVYYCARDGSYDILTGYYIDNYMDVWGQGTMVTVSSGGGGSGGGGSGGGGSQSVLTQPASVSGSPGQSITISCTGTSSDVGGYNYVSWYQQHPGKAPKLMIYEGSKRPSGVSNRFSGSKSGNTASLTISGLQAEDEADYYCSSYTTRSTRVFGGGTKLTVLG
B5: I006D08 (scFv)
scFv: QVQLQQSGAEVKKPGSSVRVSCKASGGTFNNNAINWVRQAPGQGLEWMGGIIPMFGTAKYSQNFQGRVAITADESTSTASMELSSLRSEDTAVYYCARSRDLLLFPHYGMDVWGRGTMVTVSSGGGGSGGGGSGGGGSAFSSELTQDPAVSVALGQTVRVTCQGDSLRSYYASWYQQKPGQAPVLVIYGKNNRPSGIPDRFSGSSSGNTASLTITGAQAEDEADYYCNSRDSSGNHWVFGGGTELTVLG
B6: I029F11 (scFv)
scFv: QVQLVQSRAEVKRPGASVKVSCKASGYRFGSYGITWVRQAPGQGLEWMGWISTRYGDTKSAQKVEGRVTLTTDTSTSTAYMELRSLRSDDTAVYYCARDGSYDILTGYYIDNYMDVWGRGTLVTVSSGGGGSGGGGSGGGGSQSVLTQPPSASGTPGQRVTISCSGSSSNIGSNTVNWYQRLPGAAPQLLIYNNDQRPSGIPDRFSGSKSGTSGSLVISGLQSEDEADYYCASWDDSLNGRVFGGGTKLTVLG
B7: I022D01 (scFv)
scFv: EVNLRESGGGVDQPGRSLRLSCAASGFTFSSYGMHWVRQAPGKGLEWVAVISYDGSNKYYADSVKGRFTISRDNSKNTLYLQMNSLRAEDTAVYYCAKDGYYDILTGYSYYGMDVWGQGPMVAVSSGGGGSGGGGSGGGGSSELTQDPAVSVALGQTVRITCQGDSLRSYYTNWFQQKPGQAPLLVVYAKNKRPSGIPDRFSGSSSGNTASLTITGAQAEDEADYYCNSRDSSGNHVVFGGGTKLTVLG
B8: I016F02 (scFv)
scFv: GVQLVESGAEVKKPGASVKVSCRTSGYTFTSNSFSWVRQAPGQGLEWMGGIIPIFGTANYAQKLQGRVTITADELTRTVYMDLSSLRSEDTAVYYCATGMGDHYGMDVWGRGTLVTVSSGGGGSGGGGSGGGGSQSVLTQPASVSGSPGQSITISCTGTSSDVGGYNYVSWYQQHPGKAPKLMIYEGSKRPSGVSNRFSGSKSGNTASLTISGLQAEDEADYYCSSYTTRSTRVFGGGTKLTVLG
B9: I018C10 (scFv)
scFv: GVQLVQSGPEVKKPGASVKVSCTASGYTFTSYGVSWVRQAPGQGLEWIGWISAHNGQTKYAEKFQGRVTMTRNTSISTAYMELSSLRSEDTVVYYCARDGSYDILTGYYIDNYMDVWGKGTMVTVSSGGGGSGGGGSGGGGSSELTQDPAVSVALGQTVRITCQGDSLRSYYTNWFQQKPGQAPLLVVYAKNKRPSGIPDRFSGSSSGNTASLTITGAQAEDEADYYCHSRDSSGNHVLFGGGTKLTVLG
B10: I007H08 (scFv)
scFv: QVQLQQSGPGLVKPSQILSLTCAISGDSVASNGAAWNWIRQSPSRGLEWLGRTYYRSKWYVDYAVSVKSRITINPDTSKNQFSLQLNSVTPEDTAVYYCARDRYDILTGYYYYGMDVWGQGTMVTVSSGGGGSGGGGSGGGGSQSALTQPASVSGSRGQSITISCTGTTGDVGGYDYVSWYQQHPGKAPKLLIYGNSNRPSGVPDRFSASKSGNTASLTISGLQAEDEADYFCNTYAPPGIIMFGGGTKLTVLG
B11: I008A11 (scFv)
scFv: B10 scFv with N234S

Target: T3, B Lymphocyte Stimulator, soluble form (human) (human, UniProt Q9Y275 134-285, biotinylated with NHS-biotin where used as biotinylated B Lymphocyte Stimulator)
T3 construct: Coated on plastic, captured on streptavidin plates, amine-coupled to a CM5 chip or free in solution, depending on the assay; also called BLyS; immobilized B Lymphocyte Stimulator
Experiment: phage competition ELISA

binding result | Binder
binds | B1
binds | B2
binds | B3
binds | B4
binds | B5
binds | B6
binds | B7
binds | B8
binds | B9
binds | B10
binds | B11

Target: T4, TNF-alpha (human, UniProt P01375 77-233)
T4 construct: also called TNFα; TNF-α
Experiment: phage ELISA

binding result | Binder
no binding | B1
no binding | B2
no binding | B3
no binding | B4
no binding | B5
no binding | B6
no binding | B7
no binding | B8
no binding | B9
no binding | B10
no binding | B11

Target: T5, membrane-bound B Lymphocyte Stimulator on U937 plasma membrane preparations (human, UniProt Q9Y275 1-285)
T5 construct: Natural protein in plasma membrane fractions of the human cell line U937 coated on ELISA plates; also called U937 plasma membranes; U937 membranes
Experiment: phage ELISA

binding result | Binder
binds | B1
binds | B2
binds | B3
binds | B4
binds | B5
binds | B6
binds | B7
binds | B8
binds | B9
binds | B10
binds | B11

Target: T6, TRAIL (human, UniProt P50591 114-281)
T6 construct: also called TNF-related apoptosis inducing ligand
Experiment: phage ELISA

binding result | Binder
no binding | B1
no binding | B2
no binding | B3
no binding | B4
no binding | B5
no binding | B6
no binding | B7
no binding | B8
no binding | B9
no binding | B10
no binding | B11

Target: T1, Fas ligand
Experiment: phage ELISA

binding result | Binder
no binding | B1
no binding | B2
no binding | B3
no binding | B4
no binding | B5
no binding | B6
no binding | B7
no binding | B8
no binding | B9
no binding | B10
no binding | B11

Target: T2, TNF-beta
Experiment: phage ELISA

binding result | Binder
no binding | B1
no binding | B2
no binding | B3
no binding | B4
no binding | B5
no binding | B6
no binding | B7
no binding | B8
no binding | B9
no binding | B10
no binding | B11
